Experiments:
[1] = test system: HeLa Kyoto; assay: solubility change mitosis vs G1/S (difference of NP-40 vs SDS log2 ratios) (log2 ratio difference); higher = more soluble in mitosis
[2] = test system: HeLa Kyoto; assay: solubility in G1/S (NP-40 vs SDS abundance) (log2 ratio); higher = more soluble; conditions: cell cycle stage: G1/S
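Wherever solubility change mitosis vs G1/S (difference of NP-40 vs SDS log2 ratios) is given: synchronized HeLa Kyoto cells (double thymidine block for G1/S, nocodazole release for mitosis), protein amounts in NP-40 versus SDS lysates quantified by mass spectrometry, three biological replicates.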
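Wherever solubility in G1/S (NP-40 vs SDS abundance) is given: HeLa Kyoto cells arrested at G1/S by double thymidine block, proteins quantified by TMT10plex mass spectrometry in mild NP-40 versus SDS extracts, three biological replicates.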

Sequence of POLR3K (chain, as listed by the source): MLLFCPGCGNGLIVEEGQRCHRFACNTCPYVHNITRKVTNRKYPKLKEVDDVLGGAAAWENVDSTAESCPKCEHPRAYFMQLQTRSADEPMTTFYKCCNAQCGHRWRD

Substance | solubility change mitosis (log2) [1] | solubility in G1/S (log2) [2]
MARKSNLPVLLVPFLLCQALVRCSSPLPLVVNTWPFKNATEAAWRALASGGSALDAVESGCAMCEREQCDGSVGFGGSPDELGETTLDAMIMDGTTMDVGAVGDLRRIKNAIGVARKVLEHTTHTLLVGESATTFAQSMGFINEDLSTTASQALHSDWLARNCQPNYWRNVIPDPSKYCGPYKPPGILKQDIPIHKETEDDRGHDTIGMVVIHKTGHIAAGTSTNGIKFKIHGRVGDSPIPGAGAYADDTAGAAAATGNGDILMRFLPSYQAVEYMRRGEDPTIACQKVISRIQKHFPEFFGAVICANVTGSYGAACNKLSTFTQFSFMVYNSEKNQPTEEKVDCI | -0.136 | 0.0983
MSSLPRRAKVQVQDVVLKDEFSSFSELSSASEEDDKEDSAWEPQKKVPRSRKQPPPKESKPKRMPRVKKNAPQISDGSEVVVVKEELNSSVAIADTALEDRKNKLDTVQTLKTAKTKQKCAAQPHTVRRTKKLKVEEETSKASNLEGESNSSETPSTSTVWGGTCKKEENDDDFTFGQSALKKIKTETYPQGQPVKFPANANSTKEEVEMNWDMVQVLSERTNIEPWVCANIIRLFNDDNTIPFIIRYRKELINNLDADSLREVQQTLEELRAVAKKVHSTIQKIKKEGKMSECLLKAMLNCKTFEELEHVSAPYKTGSKGTKAQRARQLGLEGAARALLEKPGELSLLSYIRPDVKGLSTLQDIEIGVQHILADMIAKDKDTLDFIRNLCQKRHVCIQSSLAKVSSKKVNEKDVDKFLLYQHFSCNIRNIHHHQILAINRGENLKVLTVKVNISDGVKDEFCRWCIQNRWRPRSFARPELMKILYNSLNDSFKRLIYPLLCREFRAKLTSDAEKESVMMFGRNLRQLLLTSPVPGRTLMGVDPGYKHGCKLAIISPTSQILHTDVVYLHCGQGFREAEKIKTLLLNFNCSTVVIGNGTACRETEAYFADLIMKNYFAPLDVVYCIVSEAGASIYSVSPEANKEMPGLDPNLRSAVSIARRVQDPLAELVKIEPKHIGVGMYQHDVSQTLLKATLDSVVEECVSFVGVDINICSEVLLRHIAGLNANRAKNIIEWREKNGPFINREQLKKVKGLGPKSFQQCAGFIRINQDYIRTFCSQQTETSGQIQGVAVTSSADVEVTNEKQGKKKSKTAVNVLLKPNPLDQTCIHPESYDIAMRFLSSIGGTLYEVGKPEMQQKINSFLEKEGMEKIAERLQTTVHTLQVIIDGLSQPESFDFRTDFDKPDFKRSIVCLEDLQIGTVLTGKVENATLFGIFVDIGVGKSGLIPIRNVTEAKLSKTKKRRSLGLGPGERVEVQVLNIDIPRSRITLDLIRVL [SRBD1] | 0.249 | -0.649
MVPAAGRRPPRVMRLLGWWQVLLWVLGLPVRGVEVAEESGRLWSEEQPAHPLQVGAVYLGEEELLHDPMGQDRAAEEANAVLGLDTQGDHMVMLSVIPGEAEDKVSSEPSGVTCGAGGAEDSRCNVRESLFSLDGAGAHFPDREEEYYTEPEVAESDAAPTEDSNNTESLKSPKVNCEERNITGLENFTLKILNMSQDLMDFLNPNGSDCTLVLFYTPWCRFSASLAPHFNSLPRAFPALHFLALDASQHSSLSTRFGTVAVPNILLFQGAKPMARFNHTDRTLETLKIFIFNQTGIEAKKNVVVTQADQIGPLPSTLIKSVDWLLVFSLFFLISFIMYATIRTESIRWLIPGQEQEHVE [TXNDC15] | -0.0906 | 0.719
DOCK4 | 0.0146 | -0.259
MATPGSEPQPFVPALSVATLHPLHHPHHHHHHHQHHGGTGAPGGAGGGGGGSGGFNLPLNRGLERALEEAANSGGLNLSARKLKEFPRTAAPGHDLSDTVQADLSKNRLVEVPMELCHFVSLEILNLYHNCIRVIPEAIVNLQMLTYLNLSRNQLSALPACLCGLPLKVLIASNNKLGSLPEEIGQLKQLMELDVSCNEITALPQQIGQLKSLRELNVRRNYLKVLPQELVDLSLVKFDFSCNKVLVIPICFREMKQLQVLLLENNPLQSPPAQICTKGKVHIFKYLSIQACQIKTADSLYLHTMERPHLHQHVEDGKKDSDSGVGSDNGDKRLSATEPSDEDTVSLNVPMSNIMEEEQIIKEDSCHRLSPVKGEFHQEFQPEPSLLGDSTNSGEERDQFTDRADGLHSEFMNYKARAEDCEELLRIEEDVHWQTEGIISSSKDQDMDIAMIEQLREAVDLLQDPNGLSTDITERSVLNLYPMGSAEALELQDSALNGQIQLETSPVCEVQSDLTLQSNGSQYSPNEIRENSPAVSPTTNSTAPFGLKPRSVFLRPQRNLESIDPQFTIRRKMEQMREEKELVEQLRESIEMRLKVSLHEDLGAALMDGVVLCHLVNHIRPRSVASIHVPSPAVPKLSMAKCRRNVENFLEACRKLGVPEADLCSPCDILQLDFRHIRKTVDTLLALGEKAPPPTSALRSRDLIGFCLVHILFIVLVYITYHWNALSA [LRCH1] | -0.186 | -0.0599
MERPSLRALLLGAAGLLLLLLPLSSSSSSDTCGPCEPASCPPLPPLGCLLGETRDACGCCPMCARGEGEPCGGGGAGRGYCAPGMECVKSRKRRKGKAGAAAGGPGVSGVCVCKSRYPVCGSDGTTYPSGCQLRAASQRAESRGEKAITQVSKGTCEQGPSIVTPPKDIWNVTGAQVYLSCEVIGIPTPVLIWNKVKRGHYGVQRTELLPGDRDNLAIQTRGGPEKHEVTGWVLVSPLSKEDAGEYECHASNSQGQASASAKITVVDALHEIPVKKGEGAEL [IGFBP7] | 0.407 | 0.0794
MVGPGPTAAAAVEERQRKLQEYLAAKGKLKSQNTKPYLKSKNNCQNQPPSKSTIRPKNDVTNHVVLPVKPKRSISIKLQPRPPNTAGSQKPKLEPPKLLGKRLTSECVSSNPYSKPSSKSFQQCEAGSSTTGELSRKPVGSLNIEQLKTTKQQLTDQGNGKCIDFMNNIHVENESLDNFLKETNKENLLDILTEPERKPDPKLYTRSKPKTDSYNQTKNSLVPKQALGKSSVNSAVLKDRVNKQFVGETQSRTFPVKSQQLSRGADLARPGVKPSRTVPSHFIRTLSKVQSSKKPVVKNIKDIKVNRSQYERPNETKIRSYPVTEQRVKHTKPRTYPSLLQGEYNNRHPNIKQDQKSSQVCIPQTSCVLQKSKAISQRPNLTVGRFNSAIPSTPSIRPNGTSGNKHNNNGFQQKAQTLDSKLKKAVPQNHFLNKTAPKTQADVTTVNGTQTNPNIKKKATAEDRRKQLEEWQKSKGKTYKRPPMELKTKRKVIKEMNISFWKSIEKEEEEKKAQLELSSKINNTLTECLNLIEGGVPSNEILNILSSIPEAEKFAKFWICKAKLLASKGTFDVIGLYEEAIKNGATPIQELRKVVLNILQDSNRTTEGITSDSLVAETSITSVEELAKKMESVKSCLSPKEREQVTATPRIAKAEQHNYPGIKLQIGPIPRINGMPEVQDMKFITPVRRSSRIERAVSRYPEMLQEHDLVVASLDELLEVEETKCFIFRRNEALPVTLGFQTPES [CKAP2L] | 0.95 | -1.14
MESETEPEPVTLLVKSPNQRHRDLELSGDRGWSVGHLKAHLSRVYPERPRPEDQRLIYSGKLLLDHQCLRDLLPKQEKRHVLHLVCNVKSPSKMPEINAKVAESTEEPAGSNRGQYPEDSSSDGLRQREVLRNLSSPGWENISRPEAAQQAFQGLGPGFSGYTPYGWLQLSWFQQIYARQYYMQYLAATAASGAFVPPPSAQEIPVVSAPAPAPIHNQFPAENQPANQNAAPQVVVNPGANQNLRMNAQGGPIVEEDDEINRDWLDWTYSAATFSVFLSILYFYSSLSRFLMVMGATVVMYLHHVGWFPFRPRPVQNFPNDGPPPDVVNQDPNNNLQEGTDPETEDPNHLPPDRDVLDGEQTSPSFMSTAWLVFKTFFASLLPEGPPAIAN [HERPUD1] | -0.0685 | 0.0523
MPSRAEDYEVLYTIGTGSYGRCQKIRRKSDGKILVWKELDYGSMTEAEKQMLVSEVNLLRELKHPNIVRYYDRIIDRTNTTLYIVMEYCEGGDLASVITKGTKERQYLDEEFVLRVMTQLTLALKECHRRSDGGHTVLHRDLKPANVFLDGKQNVKLGDFGLARILNHDTSFAKTFVGTPYYMSPEQMNRMSYNEKSDIWSLGCLLYELCALMPPFTAFSQKELAGKIREGKFRRIPYRYSDELNEIITRMLNLKDYHRPSVEEILENPLIADLVADEQRRNLERRGRQLGEPEKSQDSSPVLSELKLKEIQLQERERALKAREERLEQKEQELCVRERLAEDKLARAENLLKNYSLLKERKFLSLASNPELLNLPSSVIKKKVHFSGESKENIMRSENSESQLTSKSKCKDLKKRLHAAQLRAQALSDIEKNYQLKSRQILGMR [NEK2] | 0.191 | -0.123
MGAQDRPQCHFDIEINREPVGRIMFQLFSDICPKTCKNFLCLCSGEKGLGKTTGKKLCYKGSTFHRVVKNFMIQGGDFSEGNGKGGESIYGGYFKDENFILKHDRAFLLSMANRGKHTNGSQFFITTKPAPHLDGVHVVFGLVISGFEVIEQIENLKTDAASRPYADVRVIDCGVLATKSIKDVFEKKRKKPTHSEGSDSSSNSSSSSESSSESELEHERSRRRKHKRRPKVKRSKKRRKEASSSEEPRNKHAMNPKGHSERSDTNEKRSVDSSAKREKPVVRPEEIPPVPENRFLLRRDMPVVTAEPEPKIPDVAPIVSDQKPSVSKSGRKIKGRGTIRYHTPPRSRSCSESDDDDSSETPPHWKEEMQRLRAYRPPSGEKWSKGDKLSDPCSSRWDERSLSQRSRSWSYNGYYSDLSTARHSGHHKKRRKEKKVKHKKKGKKQKHCRRHKQTKKRRILIPSDIESSKSSTRRMKSSCDRERSSRSSSLSSHHSSKRDWSKSDKDVQSSLTHSSRDSYRSKSHSQSYSRGSSRSRTASKSSSHSRSRSKSRSSSKSGHRKRASKSPRKTASQLSENKPVKTEPLRATMAQNENVVVQPVVAENIPVIPLSDSPPPSRWKPGQKPWKPSYERIQEMKAKTTHLLPIQSTYSLANIKETGSSSSYHKREKNSESDQSTYSKYSDRSSESSPRSRSRSSRSRSYSRSYTRSRSLASSHSRSRSPSSRSHSRNKYSDHSQCSRSSSYTSISSDDGRRAKRRLRSSGKKNSVSHKKHSSSSEKTLHSKYVKGRDRSSCVRKYSESRSSLDYSSDSEQSSVQATQSAQEKEKQGQMERTHNKQEKNRGEEKSKSERECPHSKKRTLKENLSDHLRNGSKPKRKNYAGSKWDSESNSERDVTKNSKNDSHPSSDKEEGEATSDSESEVSEIHIKVKPTTKSSTNTSLPDDNGAWKSSKQRTSTSDSEGSCSNSENNRGKPQKHKHGSKENLKREHTKKVKEKLKGKKDKKHKAPKRKQAFHWQPPLEFGEEEEEEIDDKQVTQESKEKKVSENNETIKDNILKTEKSSEEDLSGKHDTVTVSSDLDQFTKDDSKLSISPTALNTEENVACLQNIQHVEESVPNGVEDVLQTDDNMEICTPDRSSPAKVEETSPLGNARLDTPDINIVLKQDMATEHPQAEVVKQESSMSESKVLGEVGKQDSSSASLASAGESTGKKEVAEKSQINLIDKKWKPLQGVGNLAAPNAATSSAVEVKVLTTVPEMKPQGLRIEIKSKNKVRPGSLFDEVRKTARLNRRPRNQESSSDEQTPSRDDDSQSRSPSRSRSKSETKSRHRTRSVSYSHSRSRSRSSTSSYRSRSYSRSRSRGWYSRGRTRSRSSSYRSYKSHRTSSRSRSRSSSYDPHSRSRSYTYDSYYSRSRSRSRSQRSDSYHRGRSYNRRSRSCRSYGSDSESDRSYSHHRSPSESSRYS [NKTR] | 0.283 | -1.34
MAAVKASTSKATRPWYSHPVYARYWQHYHQAMAWMQSHHNAYRKAVESCFNLPWYLPSALLPQSSYDNEAAYPQSFYDHHVAWQDYPCSSSHFRRSGQHPRYSSRIQASTKEDQALSKEEEMETESDAEVECDLSNMEITEELRQYFAETERHREERRRQQQLDAERLDSYVNADHDLYCNTRRSVEAPTERPGERRQAEMKRLYGDSAAKIQAMEAAVQLSFDKHCDRKQPKYWPVIPLKF [GEMIN8] | 0.219 | 0.511
POLR3K | 0.031 | 0.354
